The values below come from patent publication US20170015742A1 (published 2017).

Some results are limits rather than exact numbers.

For experiment [1], the target named is T1, Human PDGF-BB (human, UniProt P01127 82-190).
T1 construct: Dimer of two B chains; also called hPDGF-BB; huPDGF-BB
Kind of experiment: competition ELISA: antibody pre-incubated with hPDGF-BB-biotin, binding to coated hPDGF-Rβ-Fc. As to the method: Plates were then washed four times with wash buffer (TBS, 0.05% Tween-20) and blocked with Superblock blocking buffer (Thermo Scientific, cat#37535). During the blocking step, supernatants, antibodies, benchmark compounds or DVD-Ig were diluted in assay diluent (10% Superblock containing 0.05% surfactamps) and an eight point titration of each sample molecule was performed. […] Following incubation, plates were washed four times with wash buffer. Detection reagent Streptavidin-polyHRP-40 (Fitzgerald, cat#65r-s104phrp) was diluted in assay diluent and added to plates (50 μL) for 45 minutes at 25° C. with shaking. Plates were washed four times with wash buffer and developed with the addition of Enhanced K-blue TMB substrate (Neogen, cat#308177). The reaction was stopped with 2N sulfuric acid (VWR, cat# BDH3500-1) and the absorbance was read at 450 nm-570 nm. […] Data was analyzed using Softmax Pro 4.8 software and IC₅₀ values calculated using a sigmoidal dose response (variable slope) fit in GraphPad Prism 5.
Potency was evaluated in both cell-based and ELISA formats.
Background: An ELISA detects its analyte on a solid surface through an enzyme-linked reagent.
Target sequence in this assay (P01127 82-190 limits assumed): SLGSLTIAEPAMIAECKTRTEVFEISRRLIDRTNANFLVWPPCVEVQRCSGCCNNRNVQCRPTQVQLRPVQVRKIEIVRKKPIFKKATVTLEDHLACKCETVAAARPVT

Experiment [2] has as its target T1, Human PDGF-BB. In words: Biacore SPR, antibody captured by anti-human Fc, PDGF-BB as analyte. As to the method: Unreacted moieties on the biosensor surface were blocked with ethanolamine. For kinetic analysis, rate equations derived from the 1:1 Langmuir binding model were fitted simultaneously to multiple antigen injections (using global fit analysis) with the use of Scrubber 2 (BioLogic Software), Biacore Biaevaluation 4.0.1 software or Biacore T100 Evaluation software. Purified antibodies or DVD-Ig molecules were diluted in running buffer for capture across goat anti-human Fc reaction surfaces. Antibodies or DVD-Ig molecules to be captured as a ligand (1 μg/ml) were injected over reaction matrices at a flow rate of 10 μl/minute. During the assay, all measurements were referenced against the capture surface alone (i.e., with no captured antibody or DVD-Ig molecule). […] The equilibrium dissociation constant KD (M) of the reaction between antibodies and the target antigen was then calculated from the kinetic rate constants by the following formula: KD=Koff/Kₒₙ. Binding was recorded as a function of time and kinetic rate constants were calculated. In this assay, on-rates as fast as 10⁶M⁻¹s⁻¹ and off-rates as slow as 10⁻⁶ s⁻¹ could be measured. […]

Experiment [3] deals with T2, Cynomolgus monkey PDGF-BB (cynomolgus monkey, UniProt P01127 82-190 (human entry), limits assumed).
T2 chain: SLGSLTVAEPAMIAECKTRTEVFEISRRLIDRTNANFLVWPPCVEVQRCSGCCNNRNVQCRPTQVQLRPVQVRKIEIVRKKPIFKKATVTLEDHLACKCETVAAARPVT
In words: cell-based or functional assay.

In experiment [4] the target is T1, Human PDGF-BB. Kind of experiment: cell-based or functional assay.
Target sequence in this assay (P01127 82-190 limits assumed): as the sequence (P01127 82-190 limits assumed) above

B1: CL-33682-IgG (antibody, V domains shown)
VH: EVTLRESGPALVKPTQTLTLTCTFSGFSLSTYGMGVGWIRQPPGKALEWLANIWWDDDKYYNPSLKNRLTISKDTSKNQVVLTMTNMDPVDTATYYCARIESSWTSYSFDYWGQGTMVTVSS
VL: EIVLTQSPGTLSLSPGERATLSCERSSGSNYDTYVSWYQQKPGQAPRLLIYADDLRASGIPDRFSGSGSGTDFTLTISRLEPEDFAVYYCQSYGINIDVVFGGGTKVEIK
In turn, B1 showed an IC50 in the experiment with Human PDGF-BB [1] of 69 pM. In the experiment with Human PDGF-BB [2], the Kd was not above 0.24 pM and the kon is not below 9e+07 M⁻¹ s⁻¹. Moreover, in experiment [3], the “cynoPDGF-BB NIH-3T3 Proliferation IC50” value worked out at 19 pM. For the same molecule, the “hPDGF-BB NIH-3T3 Proliferation IC50” value with Human PDGF-BB [4] was found to be 30 pM.

B2: CL-33701-IgG (antibody, V domains shown)
VH: EVTLRESGPALVKPTQTLTLTCTFSGFSLSTYGMGVGWIRQPPGKALEWLANIWWDDDKYYNPSLKNRLTISKDTSKNQVVLTMTNMDPVDTATYYCARIESLGTSYSFDYWGQGTMVTVSS
VL: EIVLTQSPGTLSLSPGERATLSCERSSGDIWDYYVSWYQQKPGQAPRLVIYADDQRPSGIPDRFSGSGSGTDFTLTISRLEPEDFAVYYCQSYDLFIDVTFGGGTKVEIK
Take B2: the IC50 in the experiment with Human PDGF-BB [1] was determined as 59 pM. Moreover, in the experiment with Human PDGF-BB [2], the dissociation constant Kd stood at 0.24 pM and the kon was determined as 7.3e+07 M⁻¹ s⁻¹. Further, the “cynoPDGF-BB NIH-3T3 Proliferation IC50” value in experiment [3] came to 12 pM. Also, the “hPDGF-BB NIH-3T3 Proliferation IC50” value with Human PDGF-BB [4] turned out to be 56 pM.

B3: CL-33803-IgG (antibody, V domains shown)
VH: EVTLRESGPALVKPTQTLTLTCTFSGFSLSTYGMGVGWIRQPPGKALEWLANIWWDDDKYYNPSLKNRLTISKDTSKNQVVLTMTNMDPVDTATYYCARIESLPTSYSFDYWGQGTMVTVSS
VL: EIVLTQSPGTLSLSPGERATLSCERSSGDIWDTYVSWYQQKPGQAPRLLIYADDQRPSGIPDRFSGSGSGTDFTLTISRLEPEDFAVYYCQSYDIIIDIVFGGGTKVEIK
In turn, B3 returned an IC50 with Human PDGF-BB [1] of 44 pM. For the same molecule, in the experiment with Human PDGF-BB [2], the Kd was not above 0.16 pM and the kon is not below 9e+07 M⁻¹ s⁻¹. The “cynoPDGF-BB NIH-3T3 Proliferation IC50” value in experiment [3] was determined as 18 pM. The “hPDGF-BB NIH-3T3 Proliferation IC50” value with Human PDGF-BB [4] is 24 pM.

B4: CL-33805-IgG (antibody, V domains shown)
VH: EVTLRESGPALVKPTQTLTLTCTFSGFSLSTYGMGVGWIRQPPGKALEWLANIWWDDDKYYNPSLKNRLTISKDTSKNQVVLTMTNMDPVDTATYYCARIESHWWSYAFDYWGQGTMVTVSS
VL: EIVLTQSPGTLSLSPGERATLSCERSSGSNYDTYVSWYQQKPGQAPRLLIYADDLRASGIPDRFSGSGSGTDFTLTISRLEPEDFAVYYCQSYGIETDIVFGGGTKVEIK
As to B4, the IC50 in the experiment with Human PDGF-BB [1] was found to be 63 pM. In the experiment with Human PDGF-BB [2], this molecule displayed a Kd of 0.21 pM and a kon of 6.8e+07 M⁻¹ s⁻¹. In addition, the “cynoPDGF-BB NIH-3T3 Proliferation IC50” value in experiment [3] turned out to be 18 pM. The “hPDGF-BB NIH-3T3 Proliferation IC50” value with Human PDGF-BB [4] was 39 pM.

B5: CL-33820-IgG (antibody, V domains shown)
VH: EVTLRESGPALVKPTQTLTLTCTFSGFSLSTYGMGVGWIRQPPGKALEWLANIWWDDDKYYNPSLKNRLTISKDTSKNQVVLTMTNMDPVDTATYYCARIESSFTSYSFDYWGQGTMVTVSS
VL: EIVLTQSPGTLSLSPGERATLSCKRSSGSIYDTYVSWYQQKPGQAPRLVIYSDDQRPSGIPDRFSGSGSGTDFTLTISRLEPEDFAVYYCQSYDLTIDITFGGGTKVEIK
In turn, B5 gave an IC50 in the experiment with Human PDGF-BB [1] of 66 pM. In the experiment with Human PDGF-BB [2], this molecule registered a Kd not above 0.16 pM and a kon not below 9.8e+07 M⁻¹ s⁻¹. In addition, the “cynoPDGF-BB NIH-3T3 Proliferation IC50” value in experiment [3] is 13 pM. Moreover, in the experiment with Human PDGF-BB [4], the “hPDGF-BB NIH-3T3 Proliferation IC50” value was 17 pM.

B6: CL-33731-IgG (antibody, V domains shown)
VH: EVTLRESGPALVKPTQTLTLTCTFSGFSLSTYGMGVGWIRQPPGKALEWLANIWWDDDKYYNPSLKNRLTISKDTSKNQVVLTMTNMDPVDTATYYCARIESIPTSYSFDYWGQGTMVTVSS
VL: EIVLTQSPGTLSLSPGERATLSCERSSGSIWQSYVSWYQQKPGQAPRLVIYADDQRATGIPDRFSGSGSGTDFTLTISRLEPEDFAVYYCQSYDIDIDVVFGGGTKVEIK
The molecule B6 showed an IC50 with Human PDGF-BB [1] of 68 pM. In the experiment with Human PDGF-BB [2], this molecule displayed a Kd of 0.2 pM and a kon of 8.1e+07 M⁻¹ s⁻¹. The “cynoPDGF-BB NIH-3T3 Proliferation IC50” value in experiment [3] came out at 23 pM. In addition, the “hPDGF-BB NIH-3T3 Proliferation IC50” value with Human PDGF-BB [4] was found to be 36 pM.

B7: CL-33855-IgG (antibody, V domains shown)
VH: EVTLRESGPALVKPTQTLTLTCTFSGFSLSTYGMGVGWIRQPPGKALEWLANIWWDDDKYYNPSLKNRLTISKDTSKNQVVLTMTNMDPVDTATYYCARIETFGPKYSFDYWGQGTMVTVSS
VL: EIVLTQSPGTLSLSPGERATLSCRASSGSIWYSFVSWYQQKPGQAPRLLIYADDQRASGIPDRFSGSGSGTDFTLTISRLEPEDFAVYYCQSYGINIDVVFGGGTKVEIK
The molecule B7 yielded an IC50 with Human PDGF-BB [1] of 162 pM. Besides, in the experiment with Human PDGF-BB [2], the Kd is not above 0.05 pM and the kon amounted to 2e+07 M⁻¹ s⁻¹. For the same molecule, the “cynoPDGF-BB NIH-3T3 Proliferation IC50” value in experiment [3] came to 19 pM. Further, the “hPDGF-BB NIH-3T3 Proliferation IC50” value in the experiment with Human PDGF-BB [4] was found to be 37 pM.

B8: CL-33812-IgG (antibody, V domains shown)
VH: EVTLRESGPALVKPTQTLTLTCTFSGFSLSTYGMGVGWIRQPPGKALEWLANIWWDDDKYYNPSLKNRLTISKDTSKNQVVLTMTNMDPVDTATYYCARIESNPWKYSFDYWGQGTMVTVSS
VL: EIVLTQSPGTLSLSPGERATLSCERSSGDIWQSYVSWYQQKPGQAPRLVIYSDDQRASGIPDRFSGSGSGTDFTLTISRLEPEDFAVYYCQSYGINIDVVFGGGTKVEIK
For B8, the IC50 with Human PDGF-BB [1] is 43 pM. Moreover, in the experiment with Human PDGF-BB [2], the Kd worked out at 0.3 pM and the kon worked out at 6.3e+07 M⁻¹ s⁻¹. Moreover, the “cynoPDGF-BB NIH-3T3 Proliferation IC50” value in experiment [3] was 28 pM. In the experiment with Human PDGF-BB [4], the “hPDGF-BB NIH-3T3 Proliferation IC50” value was found to be 33 pM.

B9: CL-33706-IgG (antibody, V domains shown)
VH: EVTLRESGPALVKPTQTLTLTCTFSGFSLSTYGMGVGWIRQPPGKALEWLANIWWDDDKYYNPSLKNRLTISKDTSKNQVVLTMTNMDPVDTATYYCARIETMGPKYSFDYWGQGTMVTVSS
VL: EIVLTQSPGTLSLSPGERATLSCRASSGSIWYSFVSWYQQKPGQAPRLLIYADDQRASGIPDRFSGSGSGTDFTLTISRLEPEDFAVYYCQSYGINIDVVFGGGTKVEIK
As to B9, in the experiment with Human PDGF-BB [1], the IC50 came to 81 pM. In the experiment with Human PDGF-BB [2], this molecule gave a Kd of 0.69 pM and a kon of 1.8e+07 M⁻¹ s⁻¹. Besides, in experiment [3], the “cynoPDGF-BB NIH-3T3 Proliferation IC50” value came out at 19 pM. Moreover, in the experiment with Human PDGF-BB [4], the “hPDGF-BB NIH-3T3 Proliferation IC50” value came to 35 pM.

B10: CL-33811-IgG (antibody, V domains shown)
VH: EVTLRESGPALVKPTQTLTLTCTFSGFSLSTYGMGVGWIRQPPGKALEWLANIWWDDDKYYNPSLKNRLTISKDTSKNQVVLTMTNMDPVDTATYYCARIESSWTTYSFDYWGQGTMVTVSS
VL: EIVLTQSPGTLSLSPGERATLSCERSSGSIWHSYVSWYQQKPGQAPRLLIYSDDQRATGIPDRFSGSGSGTDFTLTISRLEPEDFAVYYCQSYGIYIDVVFGGGTKVEIK
In the experiment with Human PDGF-BB [1], B10 registered an IC50 of 100 pM. In the experiment with Human PDGF-BB [2], this molecule registered a Kd of 0.45 pM and a kon of 2.7e+07 M⁻¹ s⁻¹. Moreover, the “cynoPDGF-BB NIH-3T3 Proliferation IC50” value in experiment [3] is 12 pM. Further, the “hPDGF-BB NIH-3T3 Proliferation IC50” value in the experiment with Human PDGF-BB [4] came out at 32 pM.

B11: CL-33683-IgG (antibody, V domains shown)
VH: EVTLRESGPALVKPTQTLTLTCTFSGFSLSTYGMGVGWIRQPPGKALEWLANIWWDDDKYYNPSLKNRLTISKDTSKNQVVLTMTNMDPVDTATYYCARIETIGPKYSFDYWGQGTMVTVSS
VL: EIVLTQSPGTLSLSPGERATLSCRASSGSIWYSFVSWYQQKPGQAPRLLIYADDQRASGIPDRFSGSGSGTDFTLTISRLEPEDFAVYYCQSYGINIDVVFGGGTKVEIK
In the case of B11, the IC50 in the experiment with Human PDGF-BB [1] turned out to be 126 pM. For the same molecule, in the experiment with Human PDGF-BB [2], the Kd turned out to be 0.44 pM and the kon turned out to be 1.9e+07 M⁻¹ s⁻¹. The “cynoPDGF-BB NIH-3T3 Proliferation IC50” value in experiment [3] stood at 28 pM. The “hPDGF-BB NIH-3T3 Proliferation IC50” value in the experiment with Human PDGF-BB [4] was 29 pM.

In general, IC50 refers to the concentration needed to halve the response being measured. By Kd is commonly meant the equilibrium constant for the complex coming apart. The term kon denotes a measure of how fast the partners come together.
